In data set [1] the test system is HeLa Kyoto. As to the kind of experiment: thermal stability score vs G1/S (z-score of summed log2 fold changes over temperatures); higher = more thermally stable than in G1/S.
In data set [2] the test system is HeLa Kyoto. As to the kind of experiment: solubility change mitosis vs G1/S (difference of NP-40 vs SDS log2 ratios) (log2 ratio difference); higher = more soluble in mitosis.
Data set [3] deals with HeLa Kyoto. As to the kind of experiment: solubility in G1/S (NP-40 vs SDS abundance) (log2 ratio); higher = more soluble. Particulars: cell cycle stage: G1/S.
In data set [4] the test system is HeLa Kyoto. As to the kind of experiment: melting temperature (median over replicates), in situ; higher = more thermally stable.
Setting [5] is: cell cycle stage: early G1 (4.5 h after nocodazole release).

This is an account of results in the supplement of paper PMC5998384.
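Throughout, for melting temperature (median over replicates), in situ: HeLa Kyoto cells synchronized by double thymidine or nocodazole block, proteins quantified by TMT10plex mass spectrometry, three independent biological replicates.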
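Throughout, for solubility change mitosis vs G1/S (difference of NP-40 vs SDS log2 ratios): synchronized HeLa Kyoto cells (double thymidine block for G1/S, nocodazole release for mitosis), protein amounts in NP-40 versus SDS lysates quantified by mass spectrometry, three biological replicates.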
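Throughout, for solubility in G1/S (NP-40 vs SDS abundance): HeLa Kyoto cells arrested at G1/S by double thymidine block, proteins quantified by TMT10plex mass spectrometry in mild NP-40 versus SDS extracts, three biological replicates.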
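Throughout, for thermal stability score vs G1/S (z-score of summed log2 fold changes over temperatures): synchronized HeLa Kyoto cells, proteins quantified by TMT10plex mass spectrometry, three biological replicates, mitosis taken 0.5 h after nocodazole release, G1/S directly after double thymidine block.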

For the sequence “MGDHAWSFLKDFLAGGVAAAVSKTAVAPIERVKLLLQVQHASKQISAEKQYKGIIDCVVRIPKEQGFLSFWRGNLANVIRYFPTQALNFAFKDKYKQLFLGGVDRHKQFWRYFAGNLASGGAAGATSLCFVYPLDFARTRLAADVGKGAAQREFHGLGDCIIKIFKSDGLRGLYQGFNVSVQGIIIYRAAYFGVYDTAKGMLPDPKNVHIFVSWMIAQSVTAVAGLVSYPFDTVRRRMMMQSGRKGADIMYTGTVDCWRKIAKDEGAKAFFKGAWSNVLRGMGGAFVLVLYDEIKKYV [SLC25A4]”, the figures for the thermal stability score in the data set with HeLa Kyoto [1] (setting [5]) and in the data set on HeLa Kyoto [1] (cell cycle stage: mitosis) were -2.08 and -1.11, respectively. Besides, in the data set on HeLa Kyoto [2], the “solubility change mitosis (log2)” value is -0.117. The “solubility in G1/S (log2)” value in the data set on HeLa Kyoto [3] was -0.352. Besides, the melting temperature worked out at 58.1 °C in the data set with HeLa Kyoto [4] (cell cycle stage: G1/S) and 56.4 °C in the data set with HeLa Kyoto [4] (cell cycle stage: mitosis).

Take “MGDTVVEPAPLKPTSEPTSGPPGNNGGSLLSVITEGVGELSVIDPEVAQKACQEVLEKVKLLHGGVAVSSRGTPLELVNGDGVDSEIRCLDDPPAQIREEEDEMGAAVASGTAKGARRRRQNNSAKQSWLLRLFESKLFDISMAISYLYNSKEPGVQAYIGNRLFCFRNEDVDFYLPQLLNMYIHMDEDVGDAIKPYIVHRCRQSINFSLQCALLLGAYSSDMHISTQRHSRGTKLRKLILSDELKPAHRKRELPSLSPAPDTGLSPSKRTHQRSKSDATASISLSSNLKRTASNPKVENEDEELSSSTESIDNSFSSPVRLAPEREFIKSLMAIGKRLATLPTKEQKTQRLISELSLLNHKLPARVWLPTAGFDHHVVRVPHTQAVVLNSKDKAPYLIYVEVLECENFDTTSVPARIPENRIRSTRSVENLPECGITHEQRAGSFSTVPNYDNDDEAWSVDDIGELQVELPEVHTNSCDNISQFSVDSITSQESKEPVFIAAGDIRRRLSEQLAHTPTAFKRDPEDPSAVALKEPWQEKVRRIREGSPYGHLPNWRLLSVIVKCGDDLRQELLAFQVLKQLQSIWEQERVPLWIKPYKILVISADSGMIEPVVNAVSIHQVKKQSQLSLLDYFLQEHGSYTTEAFLSAQRNFVQSCAGYCLVCYLLQVKDRHNGNILLDAEGHIIHIDFGFILSSSPRNLGFETSAFKLTTEFVDVMGGLDGDMFNYYKMLMLQGLIAARKHMDKVVQIVEIMQQGSQLPCFHGSSTIRNLKERFHMSMTEEQLQLLVEQMVDGSMRSITTKLYDGFQYLTNGIM [PI4KB]”: the values for the thermal stability score in the data set on HeLa Kyoto [1] (setting [5]) and in the data set on HeLa Kyoto [1] (cell cycle stage: mitosis) were -0.522 and -0.618, respectively. The “solubility change mitosis (log2)” value in the data set on HeLa Kyoto [2] is -0.221. In addition, in the data set with HeLa Kyoto [3], the “solubility in G1/S (log2)” value was determined as 0.00648. Moreover, the melting temperature with HeLa Kyoto [4] (cell cycle stage: G1/S) turned out to be 52.3 °C; in the data set with HeLa Kyoto [4] (cell cycle stage: mitosis), 52.2 °C.

For “MGFLKLIEIENFKSYKGRQIIGPFQRFTAIIGPNGSGKSNLMDAISFVLGEKTSNLRVKTLRDLIHGAPVGKPAANRAFVSMVYSEEGAEDRTFARVIVGGSSEYKINNKVVQLHEYSEELEKLGILIKARNFLVFQGAVESIAMKNPKERTALFEEISRSGELAQEYDKRKKEMVKAEEDTQFNYHRKKNIAAERKEAKQEKEEADRYQRLKDEVVRAQVQLQLFKLYHNEVEIEKLNKELASKNKEIEKDKKRMDKVEDELKEKKKELGKMMREQQQIEKEIKEKDSELNQKRPQYIKAKENTSHKIKKLEAAKKSLQNAQKHYKKRKGDMDELEKEMLSVEKARQEFEERMEEESQSQGRDLTLEENQVKKYHRLKEEASKRAATLAQELEKFNRDQKADQDRLDLEERKKVETEAKIKQKLREIEENQKRIEKLEEYITTSKQSLEEQKKLEGELTEEVEMAKRRIDEINKELNQVMEQLGDARIDRQESSRQQRKAEIMESIKRLYPGSVYGRLIDLCQPTQKKYQIAVTKVLGKNMDAIIVDSEKTGRDCIQYIKEQRGEPETFLPLDYLEVKPTDEKLRELKGAKLVIDVIRYEPPHIKKALQYACGNALVCDNVEDARRIAFGGHQRHKTVALDGTLFQKSGVISGGASDLKAKARRWDEKAVDKLKEKKERLTEELKEQMKAKRKEAELRQVQSQAHGLQMRLKYSQSDLEQTKTRHLALNLQEKSKLESELANFGPRINDIKRIIQSREREMKDLKEKMNQVEDEVFEEFCREIGVRNIREFEEEKVKRQNEIAKKRLEFENQKTRLGIQLDFEKNQLKEDQDKVHMWEQTVKKDENEIEKLKKEEQRHMKIIDETMAQLQDLKNQHLAKKSEVNDKNHEMEEIRKKLGGANKEMTHLQKEVTAIETKLEQKRSDRHNLLQACKMQDIKLPLSKGTMDDISQEEGSSQGEDSVSGSQRISSIYAREALIEIDYGDLCEDLKDAQAEEEIKQEMNTLQQKLNEQQSVLQRIAAPNMKAMEKLESVRDKFQETSDEFEAARKRAKKAKQAFEQIKKERFDRFNACFESVATNIDEIYKALSRNSSAQAFLGPENPEEPYLDGINYNCVAPGKRFRPMDNLSGGEKTVAALALLFAIHSYKPAPFFVLDEIDAALDNTNIGKVANYIKEQSTCNFQAIVISLKEEFYTKAESLIGVYPEQGDCVISKVLTFDLTKYPDANPNPNEQ [SMC1A]”, the thermal stability score in the data set with HeLa Kyoto [1] (setting [5]) is -0.868; with HeLa Kyoto [1] (cell cycle stage: mitosis), -1.79. The “solubility change mitosis (log2)” value in the data set on HeLa Kyoto [2] worked out at 0.0456. The “solubility in G1/S (log2)” value in the data set with HeLa Kyoto [3] was -0.302. Further, the melting temperature worked out at 51.9 °C in the data set with HeLa Kyoto [4] (cell cycle stage: G1/S) and 51.3 °C in the data set on HeLa Kyoto [4] (cell cycle stage: mitosis).

In the case of “MGGGWWWARAARLARLRFRRSLLPPQRPRSGGARGSFAPGHGPRAGASPPPVSELDRADAWLLRKAHETAFLSWFRNGLLASGIGVISFMQSDMGREAAYGFFLLGGLCVVWGSASYAVGLAALRGPMQLTLGGAAVGAGAVLAASLLWACAVGLYMGQLELDVELVPEDDGTASAEGPDEAGRPPPE [TMEM160]”, the figures for the thermal stability score in the data set on HeLa Kyoto [1] (setting [5]) and in the data set with HeLa Kyoto [1] (cell cycle stage: mitosis) were -1.62 and -1.47, respectively. For the same sequence, the “solubility change mitosis (log2)” value with HeLa Kyoto [2] was -0.0483. Moreover, the “solubility in G1/S (log2)” value in the data set with HeLa Kyoto [3] is -0.112. For the same sequence, the values for the melting temperature in the data set with HeLa Kyoto [4] (cell cycle stage: G1/S) and in the data set with HeLa Kyoto [4] (cell cycle stage: mitosis) were 54.2 °C and 56.9 °C, respectively.

On to “MGGKLSKKKKGYNVNDEKAKEKDKKAEGAATEEEGTPKESEPQAAAEPAEAKEGKEKPDQDAEGKAEEKEGEKDAAAAKEEAPKAEPEKTEGAAEAKAEPPKAPEQEQAAPGPAAGGEAPKAAEAAAAPAESAAPAAGEEPSKEEGEPKKTEAPAAPAAQETKSDGAPASDSKPGSSEAAPSSKETPAATEAPSSTPKAQGPAASAEEPKPVEAPAANSDQTVTVKE [BASP1]”, for which the thermal stability score in the data set with HeLa Kyoto [1] (setting [5]) was -5.91; with HeLa Kyoto [1] (cell cycle stage: mitosis), -9.69. The “solubility change mitosis (log2)” value in the data set with HeLa Kyoto [2] stood at 0.98. Also, in the data set on HeLa Kyoto [3], the “solubility in G1/S (log2)” value was -1.08. Besides, the melting temperature in the data set with HeLa Kyoto [4] (cell cycle stage: G1/S) came to 48.2 °C.
